The target in the assay is human beta-Klotho (human, UniProt Q86Z14 1-1044). Nature of the assay: cell-based or functional assay.

Where a chain is given by its changes, count along the chain named. In names and notes the source's numbering stands.

B1: Met-FGF21 (mature human FGF21 with an added N-terminal methionine) (ligand)
chain: MHPIPDSSPLLQFGGQVRQRYLYTDDAQQTEAHLEIREDGTVGGAADQSPESLLQLKALKPGVIQILGVKTSRFLCQRPDGALYGSLHFDPEACSFRELLLEDGYNVYQSEAHGLPLHLPGNKSPHRDPAPRGPARFLPLPGLPPALPEPPGILAPQPPDVGSSDPLSMVGPSQGRSPSYAS
In the case of B1, the “pERK-HEK293-Beta-klotho without HSA [EC50 (nM)] Median Value” (“pERK-HEK293-Beta-klotho without HSA” below) came out at 1.6 nM.

B2: [-1A, S71C, L166F, S167G, M168L, G174V, Y179F, A180E] FGF-21 (ligand)
chain: B1 chain with M1A, S72C, L167F, S168G, M169L, G175V, Y180F, A181E
Turning to B2, the “pERK-HEK293-Beta-klotho without HSA” value was determined as 0.64 nM.

B3: [-1A, S71C, N121Q, L166F, S167G, M168L, G174V, Y179F, A180E] FGF-21 (ligand)
chain: B1 chain with M1A, S72C, N122Q, L167F, S168G, M169L, G175V, Y180F, A181E
Turning to B3, the “pERK-HEK293-Beta-klotho without HSA” value turned out to be 0.71 nM.

B4: Derivative 18: Analog 2 with modifying moiety III on the sulphur of Cys 71 (ligand)
chain: B1 chain with M1A, S72C, L167F, S168G, M169L, G175V, Y180F, A181E
modifications: Cys 71: {2-[2-(2-{2-[2-(2-{2-[(S)-4-Carboxy-4-(17-carboxyheptadecanoylamino)butyrylamino]ethoxy}ethoxy)acetylamino]ethoxy}ethoxy)acetylamino]ethylcarbamoyl}methyl (modifying moiety III) on the sulphur atom
Turning to B4, the “pERK-HEK293-Beta-klotho without HSA” value was determined as 0.47 nM.

B5: Derivative 102: Analog 11 with modifying moiety III on the sulphur of Cys 71 (ligand)
chain: B1 chain with M1A, S72C, N122Q, L167F, M169L, Q174A, G175V, Y180F
modifications: Cys 71: {2-[2-(2-{2-[2-(2-{2-[(S)-4-Carboxy-4-(17-carboxyheptadecanoylamino)butyrylamino]ethoxy}ethoxy)acetylamino]ethoxy}ethoxy)acetylamino]ethylcarbamoyl}methyl (modifying moiety III) on the sulphur atom
Turning to B5, the “pERK-HEK293-Beta-klotho without HSA” value turned out to be 1.4 nM.

B6: [-1A, S71C, N121Q, L166F, M168L, Q173A, G174V, Y179F] FGF21 (ligand)
chain: B1 chain with M1A, S72C, N122Q, L167F, M169L, Q174A, G175V, Y180F
For B6, the “pERK-HEK293-Beta-klotho without HSA” value came to 0.98 nM.

B7: [-1A, S71C, L166F, S167G, M168L, P171L, S172E, Q173A, G174V, Y179F, A180E] FGF-21 (ligand)
chain: AHPIPDSSPLLQFGGQVRQRYLYTDDAQQTEAHLEIREDGTVGGAADQSPESLLQLKALKPGVIQILGVKTCRFLCQRPDGALYGSLHFDPEACSFRELLLEDGYNVYQSEAHGLPLHLPGNKSPHRDPAPRGPARFLPLPGLPPALPEPPGILAPQPPDVGSSDPFGLVGLEAVRSPSFES
For the molecule B7, the “pERK-HEK293-Beta-klotho without HSA” value amounted to 0.47 nM.

B8: [-1A, S71C, N121Q, L166F, S167G, M168L, P171L, S172E, Q173A, G174V, Y179F, A180E] FGF-21 (ligand)
chain: B7 chain with N122Q
With B8, the “pERK-HEK293-Beta-klotho without HSA” value was 0.76 nM.

B9: Derivative 24: Analog 8 with modifying moiety III on the sulphur of Cys 71 (ligand)
chain: B7 chain with N122Q
modifications: Cys 71: {2-[2-(2-{2-[2-(2-{2-[(S)-4-Carboxy-4-(17-carboxyheptadecanoylamino)butyrylamino]ethoxy}ethoxy)acetylamino]ethoxy}ethoxy)acetylamino]ethylcarbamoyl}methyl (modifying moiety III) on the sulphur atom
With B9, the “pERK-HEK293-Beta-klotho without HSA” value worked out at 1.01 nM.

B10: [-1A, 71C, 121Q, 166F, 167G, 168L, 171L, 172E, 173A, 174V, des179-181] FGF-21 (ligand)
chain: AHPIPDSSPLLQFGGQVRQRYLYTDDAQQTEAHLEIREDGTVGGAADQSPESLLQLKALKPGVIQILGVKTCRFLCQRPDGALYGSLHFDPEACSFRELLLEDGYNVYQSEAHGLPLHLPGQKSPHRDPAPRGPARFLPLPGLPPALPEPPGILAPQPPDVGSSDPFGLVGLEAVRSPS
With B10, the “pERK-HEK293-Beta-klotho without HSA” value was determined as 12.5 nM.

B11: Derivative 101: Analog 10 with modifying moiety III on the sulphur of Cys 71 (ligand)
chain: B10 chain
modifications: Cys 71: {2-[2-(2-{2-[2-(2-{2-[(S)-4-Carboxy-4-(17-carboxyheptadecanoylamino)butyrylamino]ethoxy}ethoxy)acetylamino]ethoxy}ethoxy)acetylamino]ethylcarbamoyl}methyl (modifying moiety III) on the sulphur atom
Regarding B11, the “pERK-HEK293-Beta-klotho without HSA” value is 23.8 nM.

B12: [-1A, S71C, N121Q, L166F, S167G, M168L, G174V, Y179F, A180E, des181] FGF-21 (ligand)
chain: AHPIPDSSPLLQFGGQVRQRYLYTDDAQQTEAHLEIREDGTVGGAADQSPESLLQLKALKPGVIQILGVKTCRFLCQRPDGALYGSLHFDPEACSFRELLLEDGYNVYQSEAHGLPLHLPGQKSPHRDPAPRGPARFLPLPGLPPALPEPPGILAPQPPDVGSSDPFGLVGPSQVRSPSFE
As to B12, the “pERK-HEK293-Beta-klotho without HSA” value stood at 0.78 nM.

B13: Derivative 31: Analog 7 with modifying moiety IV on the sulphur of Cys 71 (ligand)
chain: B12 chain with P172L, S173E, Q174A
modifications: Cys 71: {2-[2-(2-{2-[2-(2-{2-[(S)-4-Carboxy-4-(19-carboxynonadecanoylamino)butyrylamino]ethoxy}ethoxy)acetylamino]ethoxy}ethoxy)acetylamino]ethylcarbamoyl}methyl (modifying moiety IV) on the sulphur atom
As for B13, the “pERK-HEK293-Beta-klotho without HSA” value came out at 1.46 nM.

B14: Derivative 23: Analog 7 with modifying moiety III on the sulphur of Cys 71 (ligand)
chain: B12 chain with P172L, S173E, Q174A
modifications: Cys 71: {2-[2-(2-{2-[2-(2-{2-[(S)-4-Carboxy-4-(17-carboxyheptadecanoylamino)butyrylamino]ethoxy}ethoxy)acetylamino]ethoxy}ethoxy)acetylamino]ethylcarbamoyl}methyl (modifying moiety III) on the sulphur atom
Regarding B14, the “pERK-HEK293-Beta-klotho without HSA” value was found to be 0.64 nM.

B15: Derivative 19: Analog 3 with modifying moiety III on the sulphur of Cys 71 (ligand)
chain: B12 chain with Q122N, P172L, S173E, Q174A
modifications: Cys 71: {2-[2-(2-{2-[2-(2-{2-[(S)-4-Carboxy-4-(17-carboxyheptadecanoylamino)butyrylamino]ethoxy}ethoxy)acetylamino]ethoxy}ethoxy)acetylamino]ethylcarbamoyl}methyl (modifying moiety III) on the sulphur atom
As to B15, the “pERK-HEK293-Beta-klotho without HSA” value was 0.48 nM.

B16: [-1A, S71C, L166F, S167G, M168L, P171L, S172E, Q173A, G174V, Y179F, A180E, des181] FGF-21 (ligand)
chain: B12 chain with Q122N, P172L, S173E, Q174A
On to B16, for which the “pERK-HEK293-Beta-klotho without HSA” value came out at 0.77 nM.

B17: [-1A, S71C, N121Q, L166F, S167G, M168L, P171L, S172E, Q173A, G174V, Y179F, A180E, des181] FGF-21 (ligand)
chain: B12 chain with P172L, S173E, Q174A
As to B17, the “pERK-HEK293-Beta-klotho without HSA” value was found to be 0.63 nM.

B18: Derivative 21: Analog 5 with modifying moiety III on the sulphur of Cys 71 (ligand)
chain: B12 chain
modifications: Cys 71: {2-[2-(2-{2-[2-(2-{2-[(S)-4-Carboxy-4-(17-carboxyheptadecanoylamino)butyrylamino]ethoxy}ethoxy)acetylamino]ethoxy}ethoxy)acetylamino]ethylcarbamoyl}methyl (modifying moiety III) on the sulphur atom
Consider B18, for which the “pERK-HEK293-Beta-klotho without HSA” value is 1.07 nM.

B19: [-1A, S71C, L166F, S167G, M168L, G174V, Y179F, A180E, des181] FGF-21 (ligand)
chain: B12 chain with Q122N
Consider B19, for which the “pERK-HEK293-Beta-klotho without HSA” value is 0.71 nM.

B20: [-1A, 121Q, 166F, 167G, 168L, 171L, 172E, 173A, 174V, 179F, 180E, des181] FGF-21 (ligand)
chain: B12 chain with C72S, P172L, S173E, Q174A
B20: the “pERK-HEK293-Beta-klotho without HSA” value was 0.7 nM.

B21: Derivative 17: Analog 1 with modifying moiety III on the sulphur of Cys 71 (ligand)
chain: B12 chain with Q122N
modifications: Cys 71: {2-[2-(2-{2-[2-(2-{2-[(S)-4-Carboxy-4-(17-carboxyheptadecanoylamino)butyrylamino]ethoxy}ethoxy)acetylamino]ethoxy}ethoxy)acetylamino]ethylcarbamoyl}methyl (modifying moiety III) on the sulphur atom
Consider B21, for which the “pERK-HEK293-Beta-klotho without HSA” value stood at 0.98 nM.
